This note sets out measurements from patent US6673915.

For this test, the target named is CC CKR2B stably expressed on HEK-293 cells (Example 10A) (human) (UniProt P41597). The experiment in a line: cell-based or functional assay.
CC CKR2B stably expressed on HEK-293 cells (Example 10A) (human), sequence (P41597 whole entry): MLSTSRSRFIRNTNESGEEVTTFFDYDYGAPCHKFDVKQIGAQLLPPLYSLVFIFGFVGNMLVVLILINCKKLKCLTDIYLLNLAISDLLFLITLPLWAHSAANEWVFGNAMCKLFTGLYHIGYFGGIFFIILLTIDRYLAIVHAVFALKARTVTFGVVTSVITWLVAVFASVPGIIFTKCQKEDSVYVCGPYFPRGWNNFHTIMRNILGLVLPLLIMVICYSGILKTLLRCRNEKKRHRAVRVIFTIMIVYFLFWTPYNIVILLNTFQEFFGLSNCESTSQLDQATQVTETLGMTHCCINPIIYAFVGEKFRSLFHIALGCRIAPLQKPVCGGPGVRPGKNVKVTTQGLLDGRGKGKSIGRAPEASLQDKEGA

recombinant human MCP-4 with the mature N-terminal Gln (PeproTech), Q99616 24-98 (ligand), sequence (Q99616 24-98): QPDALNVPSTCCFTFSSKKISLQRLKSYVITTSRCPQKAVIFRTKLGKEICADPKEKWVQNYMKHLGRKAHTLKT

Turning to “recombinant human MCP-4 with the mature N-terminal Gln (PeproTech), Q99616 24-98 (ligand)”, the half-maximal effective concentration of calcium flux was 15 nM and the saturation of calcium flux response was found to be 100 nM.
